How the values were obtained:
Type in all cases: functional, cell membranes, HEK293, Membrane vesicle
[1] = substrate: C=CC1=C(C)/C(=C/c2[nH]c(Cc3[nH]c(/C=C4\NC(=O)C(C)=C4C=C)c(C)c3CCC(=O)O[C@@H]3OC(C(=O)O)[C@@H](O)C(O)C3O)c(CCC(=O)O)c2C)NC1=O; assay: (§1) TP_TRANSPORTER: uptake in membrane vesicles from Mrp2-expressing HEK cells
[2] = substrate: C=CC1=C(C)/C(=C/c2[nH]c(Cc3[nH]c(/C=C4\NC(=O)C(C)=C4C=C)c(C)c3CCC(=O)O[C@@H]3O[C@@H](C(=O)O)[C@H](O)[C@@H](O)[C@@H]3O)c(CCC(=O)O[C@@H]3O[C@H](C(=O)O)[C@H](O)[C@H](O)[C@@H]3O)c2C)NC1=O; assay: as §1
[3] = substrate: C=CC1=C(C)/C(=C/c2[nH]c(Cc3[nH]c(/C=C4\NC(=O)C(C)=C4C=C)c(C)c3CCC(=O)O[C@@H]3OC(C(=O)O)[C@@H](O)C(O)C3O)c(CCC(=O)O)c2C)NC1=O; assay: (§2) TP_TRANSPORTER: uptake in membrane vesicles from MRP2-expressing HEK cells
[4] = substrate: C=CC1=C(C)/C(=C/c2[nH]c(Cc3[nH]c(/C=C4\NC(=O)C(C)=C4C=C)c(C)c3CCC(=O)O[C@@H]3O[C@@H](C(=O)O)[C@H](O)[C@@H](O)[C@@H]3O)c(CCC(=O)O[C@@H]3O[C@H](C(=O)O)[C@H](O)[C@H](O)[C@@H]3O)c2C)NC1=O; assay: as §2

B1: ATP-binding cassette sub-family C member 2 (Rattus norvegicus) (protein)
chain: MDKFCNSTFWDLSLLESPEADLPLCFEQTVLVWIPLGFLWLLAPWQLYSVYRSRTKRSSITKFYLAKQVFVVFLLILAAIDLSLALTEDTGQATVPPVRYTNPILYLCTWLLVLAVQHSRQWCVRKNSWFLSLFWILSVLCGVFQFQTLIRALLKDSKSNMAYSYLFFVSYGFQIVLLILTAFSGPSDSTQTPSVTASFLSSITFSWYDRTVLKGYKHPLTLEDVWDIDEGFKTRSVTSKFEAAMTKDLQKARQAFQRRLQKSQRKPEATLHGLNKKQSQSQDVLVLEEAKKKSEKTTKDYPKSWLIKSLFKTFHVVILKSFILKLIHDLLVFLNPQLLKLLIGFVKSSNSYVWFGYICAILMFAVTLIQSFCLQSYFQHCFVLGMCVRTTVMSSIYKKALTLSNLARKQYTIGETVNLMSVDSQKLMDATNYMQLVWSSVIQITLSIFFLWRELGPSILAGVGVMVLLIPVNGVLATKIRNIQVQNMKNKDKRLKIMNEILSGIKILKYFAWEPSFQEQVQGIRKKELKNLLRFGQLQSLLIFILQITPILVSVVTFSVYVLVDSANVLNAEKAFTSITLFNILRFPLSMLPMVTSSILQASVSVDRLERYLGGDDLDTSAIRRVSNFDKAVKFSEASFTWDPDLEATIQDVNLDIKPGQLVAVVGTVGSGKSSLVSAMLGEMENVHGHITIQGSTAYVPQQSWIQNGTIKDNILFGSEYNEKKYQQVLKACALLPDLEILPGGDMAEIGEKGINLSGGQKQRVSLARAAYQDADIYILDDPLSAVDAHVGKHIFNKVVGPNGLLAGKTRIFVTHGIHFLPQVDEIVVLGKGTILEKGSYRDLLDKKGVFARNWKTFMKHSGPEGEATVNNDSEAEDDDDGLIPTMEEIPEDAASLAMRRENSLRRTLSRSSRSSSRRGKSLKNSLKIKNVNVLKEKEKEVEGQKLIKKEFVETGKVKFSIYLKYLQAVGWWSILFIILFYGLNNVAFIGSNLWLSAWTSDSDNLNGTNNSSSHRDMRIGVFGALGLAQGICLLISTLWSIYACRNASKALHGQLLTNILRAPMRFFDTTPTGRIVNRFSGDISTVDDLLPQTLRSWMMCFFGIAGTLVMICMATPVFAIIIIPLSILYISVQVFYVATSRQLRRLDSVTKSPIYSHFSETVTGLPIIRAFEHQQRFLAWNEKQIDINQKCVFSWITSNRWLAIRLELVGNLVVFCSALLLVIYRKTLTGDVVGFVLSNALNITQTLNWLVRMTSEAETNIVAVERISEYINVENEAPWVTDKRPPADWPRHGEIQFNNYQVRYRPELDLVLKGITCNIKSGEKVGVVGRTGAGKSSLTNCLFRILESAGGQIIIDGIDVASIGLHDLRERLTIIPQDPILFSGSLRMNLDPFNKYSDEEVWRALELAHLRSFVSGLQLGLLSEVTEGGDNLSIGQRQLLCLGRAVLRKSKILVLDEATAAVDLETDSLIQTTIRKEFSQCTVITIAHRLHTIMDSDKIMVLDNGKIVEYGSPEELLSNRGSFYLMAKEAGIENVNHTEL
- Km [1]: 0.8 µM
- Km [2]: 0.5 µM

B2: ATP-binding cassette sub-family C member 2 (Homo sapiens) (protein)
chain: MLEKFCNSTFWNSSFLDSPEADLPLCFEQTVLVWIPLGYLWLLAPWQLLHVYKSRTKRSSTTKLYLAKQVFVGFLLILAAIELALVLTEDSGQATVPAVRYTNPSLYLGTWLLVLLIQYSRQWCVQKNSWFLSLFWILSILCGTFQFQTLIRTLLQGDNSNLAYSCLFFISYGFQILILIFSAFSENNESSNNPSSIASFLSSITYSWYDSIILKGYKRPLTLEDVWEVDEEMKTKTLVSKFETHMKRELQKARRALQRRQEKSSQQNSGARLPGLNKNQSQSQDALVLEDVEKKKKKSGTKKDVPKSWLMKALFKTFYMVLLKSFLLKLVNDIFTFVSPQLLKLLISFASDRDTYLWIGYLCAILLFTAALIQSFCLQCYFQLCFKLGVKVRTAIMASVYKKALTLSNLARKEYTVGETVNLMSVDAQKLMDVTNFMHMLWSSVLQIVLSIFFLWRELGPSVLAGVGVMVLVIPINAILSTKSKTIQVKNMKNKDKRLKIMNEILSGIKILKYFAWEPSFRDQVQNLRKKELKNLLAFSQLQCVVIFVFQLTPVLVSVVTFSVYVLVDSNNILDAQKAFTSITLFNILRFPLSMLPMMISSMLQASVSTERLEKYLGGDDLDTSAIRHDCNFDKAMQFSEASFTWEHDSEATVRDVNLDIMAGQLVAVIGPVGSGKSSLISAMLGEMENVHGHITIKGTTAYVPQQSWIQNGTIKDNILFGTEFNEKRYQQVLEACALLPDLEMLPGGDLAEIGEKGINLSGGQKQRISLARATYQNLDIYLLDDPLSAVDAHVGKHIFNKVLGPNGLLKGKTRLLVTHSMHFLPQVDEIVVLGNGTIVEKGSYSALLAKKGEFAKNLKTFLRHTGPEEEATVHDGSEEEDDDYGLISSVEEIPEDAASITMRRENSFRRTLSRSSRSNGRHLKSLRNSLKTRNVNSLKEDEELVKGQKLIKKEFIETGKVKFSIYLEYLQAIGLFSIFFIILAFVMNSVAFIGSNLWLSAWTSDSKIFNSTDYPASQRDMRVGVYGALGLAQGIFVFIAHFWSAFGFVHASNILHKQLLNNILRAPMRFFDTTPTGRIVNRFAGDISTVDDTLPQSLRSWITCFLGIISTLVMICMATPVFTIIVIPLGIIYVSVQMFYVSTSRQLRRLDSVTRSPIYSHFSETVSGLPVIRAFEHQQRFLKHNEVRIDTNQKCVFSWITSNRWLAIRLELVGNLTVFFSALMMVIYRDTLSGDTVGFVLSNALNITQTLNWLVRMTSEIETNIVAVERITEYTKVENEAPWVTDKRPPPDWPSKGKIQFNNYQVRYRPELDLVLRGITCDIGSMEKIGVVGRTGAGKSSLTNCLFRILEAAGGQIIIDGVDIASIGLHDLREKLTIIPQDPILFSGSLRMNLDPFNNYSDEEIWKALELAHLKSFVASLQLGLSHEVTEAGGNLSIGQRQLLCLGRALLRKSKILVLDEATAAVDLETDNLIQTTIQNEFAHCTVITIAHRLHTIMDSDKVMVLDNGKIIECGSPEELLQIPGPFYFMAKEAGIENVNSTKF
- Km [3]: 0.7 µM
- Km [4]: 0.9 µM
